Source: article PMC11503491

Columns and labels:
Experiment in all cases: BLI
[1] = molecular target: R11K (RBD 319-533 with 11 added lysines and the repackaging substitutions Y365F, F392W, V395I) (SARS-CoV-2 Wuhan Hu-1)
[2] = molecular target: R11K-PMD (R11K modified with NHS-PEG4-methyl while protected by S2X259) (SARS-CoV-2 Wuhan Hu-1)
[3] = molecular target: R11K-CL (R11K cross-linked with Bis-NHS-PEG5 while protected by S2X259) (SARS-CoV-2 Wuhan Hu-1)
[4] = molecular target: R11K (RBD with 11 additional lysines and three repackaging substitutions) (SARS-CoV-2 Wuhan Hu-1)
[5] = molecular target: R11K-CL (R11K cross-linked with Bis-NHS-PEG5 while protected on S2X259 resin) (SARS-CoV-2 Wuhan Hu-1)
[6] = molecular target: R11K-PMD (R11K modified with NHS-PEG4-methyl while protected on S2X259 resin) (SARS-CoV-2 Wuhan Hu-1)

In the case of CR3022 (class 4 RBD-directed antibody), the koff [1] is reported as 0.059 s⁻¹.

For S2X259 IgG (antibody), the koff [2] was 0.00085 s⁻¹ and the koff [3] was 0.001 s⁻¹.

CB6 (class 1 RBD-directed antibody) showed a koff [1] of 0.037 s⁻¹.

“fragment antigen-binding region (Fab) of S2X259” was tested, and the Kd [4] was 1.5 nM.

With S309 (class 3 RBD-directed antibody) the koff [1] was 0.00014 s⁻¹, the koff [5] was 0.0021 s⁻¹ and the koff [6] was 0.0019 s⁻¹.

S2X259 (class 4 RBD-directed antibody) gave a koff [1] of 0.0021 s⁻¹.
